Target: PKCβII in mouse brain (UniProt P68404)
Sequence (P68404 other isoform, or with tags, fused parts or gaps): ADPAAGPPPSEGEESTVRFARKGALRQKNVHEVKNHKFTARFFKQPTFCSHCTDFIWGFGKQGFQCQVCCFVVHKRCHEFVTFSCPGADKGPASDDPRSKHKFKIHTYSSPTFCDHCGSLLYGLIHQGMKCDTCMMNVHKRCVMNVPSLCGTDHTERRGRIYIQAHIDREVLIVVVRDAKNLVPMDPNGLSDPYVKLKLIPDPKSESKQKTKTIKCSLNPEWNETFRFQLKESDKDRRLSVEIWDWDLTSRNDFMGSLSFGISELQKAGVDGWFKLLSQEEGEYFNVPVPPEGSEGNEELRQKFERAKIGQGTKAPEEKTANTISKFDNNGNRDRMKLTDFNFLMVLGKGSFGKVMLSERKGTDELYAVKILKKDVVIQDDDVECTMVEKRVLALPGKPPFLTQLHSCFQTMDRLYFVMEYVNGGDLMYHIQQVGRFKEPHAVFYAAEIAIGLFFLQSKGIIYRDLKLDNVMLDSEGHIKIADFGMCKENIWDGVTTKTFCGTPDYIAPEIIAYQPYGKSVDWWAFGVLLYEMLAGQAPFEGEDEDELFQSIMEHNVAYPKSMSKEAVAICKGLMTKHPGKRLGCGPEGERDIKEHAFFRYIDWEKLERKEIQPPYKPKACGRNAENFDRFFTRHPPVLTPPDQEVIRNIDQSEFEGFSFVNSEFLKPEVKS

recombinant human AChE-R, 'readthrough' variant of acetylcholinesterase
PKC activity in brain homogenates (PKC assay kit, Upstate Biotechnology): Note the elevation of PKC activity in the different brain regions in the AChE-R transgenics as compared to FVB/N controls
